Data from US8642565B2, “Increase of immune response and targeting by antigens and/or drug linkage” (Wittycell, priority 2007, dated 2014).

Experiments:
[1] = test system: SIINFEKL (SEQ ID NO:1) induced CD8+ T cell response; SINFEKL-loaded targets; test: VITAL in vivo cytotoxicity assay, intravenous immunization (Example 1); parameters: species or system C57BI/6J CD45.2 female mice; conditions: 1 μg to 100 μg of Ova peptide alone, day 0, read out day 11
[2] = test system: SIINFEKL-H2K^b specific CD8+ cells; test: Detection of SIINFEKL specific CD8+ cells by FACS, H-2 Kb SIINFEKL pentamer and CD8 co-staining (Example 2); format: in vivo, C57BI/6J CD45.2 female mice; conditions: 1 μg conjugate, intramuscular route, day 0 and 14; compared with mice treated with 50 μg of OVA alone (FIG. 2)
Excerpt: Forty-eight 9 week-old C57BI/6J CD45.2 female mice were used for immunisation. They were split into 9 groups: groups 1 and 2 included 3 animals and groups 3 to 9 included six animals.
The ovalbumin peptide consists in the […] sequence (SEQ ID NO:2) and the glycolipids used are PBS-6, PBS-14 and PBS-57.
The mice were vaccinated by intramuscular route at day 0 and 14 with the following solutions according to the different groups:
Detection of SIINFEKL specific CD8+ cells was monitored by FACS following H-2 Kb SIINFEKL pentamer and CD8 co-staining.

[3] = test system: OVA specific IgG2a antibodies; test: Ovalbumin-specific IgG2a antibody titer after immunization (Example 4); format: in vivo, mice; conditions: 1 μg conjugate, intramuscular route, day 0 and day 14, samples 14 days after second immunization; compared with 50 μg of OVA alone (FIG. 5)
Experimental: (§1) The aim of this study was to evaluate IgG1 and IgG2a antibody response following immunization with ovalbumin in combination with different adjuvant covalently linked.
(§2) The sera tested were as follows:
(§3) Group 1; 6 mice immunized with 500 μg of ova protein with CFA/IFA (Positive control)
(§4) Group 2: 6 mice immunized with 50 μg of long ova peptide of sequence […] (SEQ ID NO:3; amino acids 316 to 338 of ovalbumin)
(§5) Group 3: 6 mice immunized with 50 μg of short ova peptide of sequence KISQAVHAAHA (SEQ ID NO:4; amino acids 323 to 333 of ovalbumin)
(§6) Group 4: 6 mice immunized with 1 μg PBS-6-OVA
(§7) Group 5: 6 mice immunized with 1 μg PBS-14-OVA
(§8) Group 6: 6 mice immunized with 1 μg PBS-57-OVA
(§9) All mice were immunized by intramuscular route at day 0 and day 14. All samples were collected 14 days following the second immunization and the IgG1 and IgG2a titers specific of ovalbumin were evaluated.

[4] = test system: SIINFEKL (SEQ ID NO:1) induced CD8+ T cell response; test: VITAL in vivo cytotoxicity assay, intramuscular immunization, OVA (Example 3); parameters: species or system C57BI/6J CD45.2 female mice; conditions: 1 μg conjugate, day 0, compared with mice treated with 50 μg of OVA alone (FIG. 3)
Experimental: Sixty-nine 9 week-old C57BI/6J CD45.2 female mice were used for immunisation. They were split into 14 groups: groups 1 to 5 included 3 animals, and groups 6 to 14 included 6 animals.
The in vivo cytotoxicity of SIINFEKL (SEQ ID NO:1) induced CD8^+ T cell response was evaluated by VITAL assay as described in Example 1.
The short ovalbumin peptide consists in the SIINFEKL sequence (SEQ ID NO:1; amino acids 257 to 264 of ovalbumin), the long ovalbumin peptide consists in the […] sequence (SEQ ID NO:2; amino acids 250 to 269 of ovalbumin) and the glycolipids used are PBS-6, PBS-14 and PBS-57.
The mice were vaccinated by intramuscular route at day 0 with the following solutions according to the different groups:
The read out was as described in Example 1.

[5] = test system: OVA specific IgG1 antibodies; test: Ovalbumin-specific IgG1 antibody titer after immunization (Example 4); format: in vivo, mice; conditions: 1 μg conjugate, intramuscular route, day 0 and day 14, samples 14 days after second immunization; compared with 50 μg of OVA alone (FIG. 4)
Experimental: as §1, §2, §3, §4, §5, §6, §7, §8, §9

Molecule: Ova peptide: ovalbumine peptide of SIINFEKL sequence (SEQ ID NO:1), amino-acids 257-264 of ovalbumine [reference compound]
- antigen-specific lysis (percent specific lysis) [1]: no antigen-specific lysis

B1: OVA covalently linked to PBS-6: Examples 2-4: ovalbumin peptide covalently linked to PBS-6 (Example 2 peptide VSGLEQLESIINFEKLTEWTS) (conjugate, UniProt P01012 2-386, looked up)
Ovalbumin: GSIGAASMEFCFDVFKELKVHHANENIFYCPIAIMSALAMVYLGAKDSTRTQINKVVRFDKLPGFGDSIEAQCGTSVNVHSSLRDILNQITKPNDVYSFSLASRLYAEERYPILPEYLQCVKELYRGGLEPINFQTAADQARELINSWVESQTNGIIRNVLQPSSVDSQTAMVLVNAIVFKGLWEKAFKDEDTQAMPFRVTEQESKPVQMMYQIGLFRVASMASEKMKILELPFASGTMSMLVLLPDEVSGLEQLESIINFEKLTEWTSSNVMEERKIKVYLPRMKMEEKYNLTSVLMAMGITDVFSSSANLSGISSAESLKISQAVHAAHAEINEAGREVVGSAEAGVDAASVSEEFRADHPFLFCIKHIATNAVLFFGRCVSP
modifications: covalently linked to glycolipid PBS-6
- percentage of SIINFEKL-H2K^b specific CD8+ in the blood [2]: stronger percentage
- titer of IgG2a specific of ovalbumin [3]: higher titers
- percentage of SIINFEKL-specific cytolytic activity in the blood [4]: stronger percentage
- titer of IgG1 specific of ovalbumin [5]: higher titers

B2: OVA covalently linked to PBS-14 (conjugate, UniProt P01012 2-386, looked up)
Ovalbumin: B1 Ovalbumin
modifications: covalently linked to glycolipid PBS-14
- percentage of SIINFEKL-H2K^b specific CD8+ in the blood [2]: stronger percentage
- titer of IgG2a specific of ovalbumin [3]: higher titers
- percentage of SIINFEKL-specific cytolytic activity in the blood [4]: stronger percentage
- titer of IgG1 specific of ovalbumin [5]: higher titers

B3: OVA covalently linked to PBS-57 (conjugate, UniProt P01012 2-386, looked up)
Ovalbumin: B1 Ovalbumin
modifications: covalently linked to glycolipid PBS-57
- percentage of SIINFEKL-H2K^b specific CD8+ in the blood [2]: stronger percentage
- titer of IgG2a specific of ovalbumin [3]: higher titers
- percentage of SIINFEKL-specific cytolytic activity in the blood [4]: stronger percentage
- titer of IgG1 specific of ovalbumin [5]: higher titers
